For assay [1], the target named is T1, human LILRB4 (human, UniProt Q8NHJ6 22-259, limits assumed).
T1 construct: also called ILT3; LIR5
Kind of assay: 'Affinity to human LILRB4'; method not stated in the example.

The target in assay [2] is T1, human LILRB4. As to the kind of experiment: blocking of APOE binding to LILRB4; method not stated in the example.
The target in assay [3] is T1, human LILRB4. As to the kind of experiment: blocking of Fibronectin binding to LILRB4; method not stated in the example.

B1: anti-LILRB4 antibody H7K3m5 (antibody, IgG1, V domains shown)
VH: EVQLVESGGGLVQPGGSLRLSCAASGFSLSSSYWISWVRQAPGKGLEWIGSIDSGSVGITYYATWVKGRFTISRDNSKNTLYLQMNSLRAEDTAVYYCARHGDNWALDLWGQGTLVTVSS
VL: DIQMTQSPSTLSASVGDRVTITCRASQSISSWLAWYQQKPGKAPKLLIYKASTLASGVPSRFSGSGSGTEFTLTISSLQPDDFATYYCQHGYIRGDLDNVFGGGTKVEIK
In the assay with human LILRB4 [1], B1 yielded a Kd of 0.5 nM. For the same molecule, the half-maximal inhibitory concentration (IC50) with human LILRB4 [2] stood at 0.18 nM; with human LILRB4 [3], 0.78 nM.

What is called Kd is the constant that tells how readily two partners part at equilibrium. A lower Kd goes with a tighter complex. A word on the IC50: it is the concentration that inhibits the measured activity by half. Lower therefore signals greater potency.

For the origin of these results see US20250179173A1 (IMMUNE ONC THERAPEUTICS, published 2025).
